Data: patent publication US20160220669A1

How the values were obtained:
Assay in all cases: cell-based or functional assay
[1] = molecular target: human mutant CSF-1R L301S Y969F (human) (UniProt P07333)
[2] = molecular target: human wildtype CSF-1R (full-length) (human) (UniProt P07333)
[3] = molecular target: CSF-1R of cynomolgous monocytes (cynomolgous)

Substance	Mutant CSF-1R IC30 (cell viability, CellTiterGlo, 3D culture) [1] [µg/mL]	Mutant CSF-1R IC50 (cell viability, CellTiterGlo, 3D culture) [1] [µg/mL]	% inhibition 10 µg/ml antibody concentration (BeWo cells, CSF-1 induced growth) [2] [%]	wtCSF-1R IC30 (cell viability, CellTiterGlo, 3D culture) [2] [µg/mL]	wtCSF-1R IC50 (cell viability, CellTiterGlo, 3D culture) [2] [µg/mL]	% survival (cynomolgous monocytes with huCSF-1, 5 µg/ml antibody) [3] [%]
Anti CSF-1R SC 2-4A5 (Santa Cruz Biotechnology, US) (antibody)	2.56	10	39	16.6	10	31
goat polyclonal anti-CSF-1R antibody ab10676 (abcam)	> 20	–	–	14.2	–	–
